# Reference: patent US20260242478A1 (published 2026)
# B1: Phage-3885 (peptide)
# peptide: GMVRCVPDWMCYGF
# notes: tested as crude clonal phage supernatant
# B2: Phage-3886 (peptide)
# peptide: TEHQCVPAWMCGGF
# notes: as for B1
# B3: Phage-3889 (peptide)
# peptide: IDTLCVPWWMCSGF
# notes: as for B1
# B4: Phage-3888 (peptide)
# peptide: LQIRCQPVWMCHGF
# notes: as for B1
# B5: Phage-3884 (peptide)
# peptide: TEPACVPPWMCVGW
# notes: as for B1
# B6: Phage-3887 (peptide)
# peptide: ILRHCTPEWMCIGL
# notes: as for B1
# B7: Phage-3890 (peptide)
# peptide: DQHACRPEWMCVGF
# notes: as for B1
# B8: Phage-3883 (peptide)
# peptide: VDYVCRPSWMCSGI
# notes: tested as crude phage supernatant; The number 3883 of the label stands in r4366
# B9: Phage-3891 (peptide)
# peptide: VVYTCVPSWMCTGL
# notes: as for B1
# Assays:
# PSMA Fab [1] = target: T1, PSMA Fab; assay: clonal phage ELISA on captured PSMA Fab, wells pre-incubated with PSMA antigen as competitor
# T1 construct: also called Anti-PSMA Fab; 006 PSMA Fab
# Procedure: (§1) Clonal phage were harvested as crude supernatants and screened via standard ELISAs. […] Prior to the addition of clonal phage. wells were incubated with blocking buffer and PSMA antigen or blocking buffer alone. Without washing or aspirating, clonal phage supernatants were then added to the wells and incubated for a short time. Wells were then washed followed by detection of bound phage using a horse radish conjugated anti-M13 antibody.
# PSMA Fab [2] = target: T1, PSMA Fab; assay: clonal phage ELISA on biotinylated PSMA Fab captured on neutravidin plates, anti-M13 HRP detection;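 note: crude clonal phage supernatants tested, before phage were added, wells were pretreated with PSMA antigen in blocking buffer or with blocking buffer only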
# Procedure: as §1
# PSMA Fab [3] = target: T2, PSMA Fab (biotinylated (site not stated)); assay: phage ELISA; biotinylated PSMA Fab on neutravidin plate, clonal phage supernatant, anti-M13 HRP detection;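 note: wells preincubated with PSMA antigen in blocking buffer or with blocking buffer only before clonal phage were added for a short incubation, then bound phage detected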
# T2 construct: Biotinylated PSMA Fab captured on neutravidin coated plates in the phage ELISA; also called Anti-PSMA Fab; 006 PSMA Fab
# PSMA Fab [4] = target: T2, PSMA Fab; assay: phage ELISA; biotinylated PSMA Fab on neutravidin plate pre-incubated with PSMA antigen as competitor, anti-M13 HRP detection;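 note: crude clonal phage supernatants tested, compared against control wells pre-incubated with blocking buffer only, without PSMA antigen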
# Procedure: as §1
# 006 PSMA Fab [5] = target: T3, 006 PSMA Fab (biotinylated (site not stated)); assay: clonal phage ELISA; biotinylated PSMA Fab on neutravidin plate, blocking buffer alone, anti-M13-HRP detection;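 note: crude clonal phage supernatants added without washing to wells preincubated with PSMA antigen or with blocking buffer alone, briefly incubated, then washed before bound phage detection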
# T3 construct: also called Anti-PSMA Fab
# 006 PSMA Fab [6] = target: T3, 006 PSMA Fab; assay: clonal phage ELISA; biotinylated PSMA Fab on neutravidin plate pre-incubated with PSMA antigen as competitor, anti-M13-HRP detection
# Procedure: as §1
# Anti-PSMA Fab = target: T4, Anti-PSMA Fab; assay: phage ELISA; biotinylated PSMA Fab on neutravidin plate, clonal phage supernatant, anti-M13 HRP detection;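 note: wells preincubated with PSMA antigen in blocking buffer or with blocking buffer only before clonal phage were added for a short incubation, then bound phage detected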
# T4 construct: In the phage ELISA the PSMA Fab was biotinylated and captured on neutravidin coated plates; also called 006 PSMA Fab
# Procedure: as §1
binder,measurement,setting,value
TAPMCNPPWMCYGL (tested as crude phage supernatant) [Phage-3878],phage binding ELISA signal,PSMA Fab [1],0.0701
same,phage binding ELISA signal,PSMA Fab [2],1.13
VVHLCTPNWMCNGF [Phage-3853],"Phage binding ELISA signal, Anti-PSMA Fab",PSMA Fab [3],1.19
same,"Phage binding ELISA signal, Anti-PSMA Fab in presence of PSMA",PSMA Fab [4],0.0576
WQAWCEPPWMCLGF [Phage-3851],"Phage binding ELISA signal, Anti-PSMA Fab",PSMA Fab [3],1.2
same,"Phage binding ELISA signal, Anti-PSMA Fab in presence of PSMA",PSMA Fab [4],0.0962
NYVKCRPAWMCDGF [Phage-3855],"Phage binding ELISA signal, Anti-PSMA Fab",PSMA Fab [3],1.18
same,"Phage binding ELISA signal, Anti-PSMA Fab in presence of PSMA",PSMA Fab [4],0.0759
B1,"Phage binding ELISA signal, Anti-PSMA Fab",006 PSMA Fab [5],1.11
same,"Phage binding ELISA signal, Anti-PSMA Fab in the presence of PSMA antigen",006 PSMA Fab [6],0.0613
B2,"Phage binding ELISA signal, Anti-PSMA Fab",006 PSMA Fab [5],1.11
same,"Phage binding ELISA signal, Anti-PSMA Fab in the presence of PSMA antigen",006 PSMA Fab [6],0.0809
MGVECKPLWMCTGL [Phage-3865],"Phage binding ELISA signal, Anti-PSMA Fab",Anti-PSMA Fab,1.16
GSHYCVPQWMCGGF [Phage-3858],"Phage binding ELISA signal, Anti-PSMA Fab",Anti-PSMA Fab,1.17
B3,"Phage binding ELISA signal, Anti-PSMA Fab",006 PSMA Fab [5],1.1
same,"Phage binding ELISA signal, Anti-PSMA Fab in the presence of PSMA antigen",006 PSMA Fab [6],0.0774
SDHLCIPRWMCVGF [Phage-3857],"Phage binding ELISA signal, Anti-PSMA Fab",Anti-PSMA Fab,1.18
B4,"Phage binding ELISA signal, Anti-PSMA Fab",006 PSMA Fab [5],1.1
same,"Phage binding ELISA signal, Anti-PSMA Fab in the presence of PSMA antigen",006 PSMA Fab [6],0.0801
VTPACMPRWMCEGF (tested as crude phage supernatant) [Phage-3879],phage binding ELISA signal,PSMA Fab [1],0.0611
same,phage binding ELISA signal,PSMA Fab [2],1.13
STMLCSPSWMCFGF (tested as crude phage supernatant) [Phage-3872],phage binding ELISA signal,PSMA Fab [1],0.073
same,phage binding ELISA signal,PSMA Fab [2],1.15
B5,"Phage binding ELISA signal, Anti-PSMA Fab",006 PSMA Fab [5],1.12
same,"Phage binding ELISA signal, Anti-PSMA Fab in the presence of PSMA antigen",006 PSMA Fab [6],0.128
PYTLCRPAWMCQAM [Phage-3868],"Phage binding ELISA signal, Anti-PSMA Fab",Anti-PSMA Fab,1.16
LEIFCVPMWMCEGL [Phage-3869],"Phage binding ELISA signal, Anti-PSMA Fab",Anti-PSMA Fab,1.16
PFLACIPQWMCEVV [Phage-3843],"Phage binding ELISA signal, Anti-PSMA Fab",PSMA Fab [3],1.22
same,"Phage binding ELISA signal, Anti-PSMA Fab in presence of PSMA",PSMA Fab [4],0.247
EPKECVPPWMCIGM [Phage-3850],"Phage binding ELISA signal, Anti-PSMA Fab",PSMA Fab [3],1.21
same,"Phage binding ELISA signal, Anti-PSMA Fab in presence of PSMA",PSMA Fab [4],0.079
DQRMCEPSWMCLGL [Phage-3852],"Phage binding ELISA signal, Anti-PSMA Fab",PSMA Fab [3],1.19
same,"Phage binding ELISA signal, Anti-PSMA Fab in presence of PSMA",PSMA Fab [4],0.0704
IEKQCVPQWMCDGF (tested as crude phage supernatant) [Phage-3880],phage binding ELISA signal,PSMA Fab [1],0.0745
same,phage binding ELISA signal,PSMA Fab [2],1.13
VQIVCSPTWMCTGF [Phage-3861],"Phage binding ELISA signal, Anti-PSMA Fab",Anti-PSMA Fab,1.17
SNVMCRPSWMCAGF (tested as crude phage supernatant) [Phage-3876],phage binding ELISA signal,PSMA Fab [1],0.132
same,phage binding ELISA signal,PSMA Fab [2],1.14
YELACVPRWMCYGL [Phage-3856],"Phage binding ELISA signal, Anti-PSMA Fab",Anti-PSMA Fab,1.18
PSQMCVPTWMCVGF [Phage-3862],"Phage binding ELISA signal, Anti-PSMA Fab",Anti-PSMA Fab,1.17
SDMVCKPPWMCYGF [Phage-3844],"Phage binding ELISA signal, Anti-PSMA Fab",PSMA Fab [3],1.22
same,"Phage binding ELISA signal, Anti-PSMA Fab in presence of PSMA",PSMA Fab [4],0.0897
LSWECVPQWMCTGL [Phage-3867],"Phage binding ELISA signal, Anti-PSMA Fab",Anti-PSMA Fab,1.16
LQQLCVPNWMCVGF (tested as crude phage supernatant) [Phage-3873],phage binding ELISA signal,PSMA Fab [1],0.0902
same,phage binding ELISA signal,PSMA Fab [2],1.15
NAGYCVPTWMCDGF [Phage-3864],"Phage binding ELISA signal, Anti-PSMA Fab",Anti-PSMA Fab,1.17
VPRLCMPPWMCVGF [Phage-3848],"Phage binding ELISA signal, Anti-PSMA Fab",PSMA Fab [3],1.21
same,"Phage binding ELISA signal, Anti-PSMA Fab in presence of PSMA",PSMA Fab [4],0.0968
YDRLCSPPWMCSGF (tested as crude phage supernatant) [Phage-3874],phage binding ELISA signal,PSMA Fab [1],0.0629
same,phage binding ELISA signal,PSMA Fab [2],1.15
IESICRPAWMCERL [Phage-3860],"Phage binding ELISA signal, Anti-PSMA Fab",Anti-PSMA Fab,1.17
VSKMCSPVWMCEGF [Phage-3854],"Phage binding ELISA signal, Anti-PSMA Fab",PSMA Fab [3],1.19
same,"Phage binding ELISA signal, Anti-PSMA Fab in presence of PSMA",PSMA Fab [4],0.0928
SGLSCVPFWMCTGF [Phage-3845],"Phage binding ELISA signal, Anti-PSMA Fab",PSMA Fab [3],1.21
same,"Phage binding ELISA signal, Anti-PSMA Fab in presence of PSMA",PSMA Fab [4],0.0662
EDALCVPQWMCSGF (tested as crude phage supernatant) [Phage-3877],phage binding ELISA signal,PSMA Fab [1],0.0648
same,phage binding ELISA signal,PSMA Fab [2],1.14
GQGSCVPMWMCEGF [Phage-3866],"Phage binding ELISA signal, Anti-PSMA Fab",Anti-PSMA Fab,1.16
B6,"Phage binding ELISA signal, Anti-PSMA Fab",006 PSMA Fab [5],1.11
same,"Phage binding ELISA signal, Anti-PSMA Fab in the presence of PSMA antigen",006 PSMA Fab [6],0.0689
EGILCKPSWMCNDF (tested as crude phage supernatant) [Phage-3871],phage binding ELISA signal,PSMA Fab [1],0.0803
same,phage binding ELISA signal,PSMA Fab [2],1.15
ESKLCIPDWMCILL (tested as crude phage supernatant) [Phage-3881],phage binding ELISA signal,PSMA Fab [1],0.0662
same,phage binding ELISA signal,PSMA Fab [2],1.13
WDIRCSPEWMCIGL [Phage-3849],"Phage binding ELISA signal, Anti-PSMA Fab",PSMA Fab [3],1.21
same,"Phage binding ELISA signal, Anti-PSMA Fab in presence of PSMA",PSMA Fab [4],0.0603
PQIKCIPAWMCDGF (tested as crude phage supernatant) [Phage-3875],phage binding ELISA signal,PSMA Fab [1],0.0851
same,phage binding ELISA signal,PSMA Fab [2],1.14
ELRLCVPHWMCDGF [Phage-3847],"Phage binding ELISA signal, Anti-PSMA Fab",PSMA Fab [3],1.21
same,"Phage binding ELISA signal, Anti-PSMA Fab in presence of PSMA",PSMA Fab [4],0.0777
QLGACIPWWMCNGF [Phage-3863],"Phage binding ELISA signal, Anti-PSMA Fab",Anti-PSMA Fab,1.17
B7,"Phage binding ELISA signal, Anti-PSMA Fab",006 PSMA Fab [5],1.1
same,"Phage binding ELISA signal, Anti-PSMA Fab in the presence of PSMA antigen",006 PSMA Fab [6],0.0789
AVIMCEPSWMCEGF (tested as crude phage supernatant) [Phage-3870],phage binding ELISA signal,PSMA Fab [1],0.102
same,phage binding ELISA signal,PSMA Fab [2],1.16
LYEMCKPLWMCAGF [Phage-3842],"Phage binding ELISA signal, Anti-PSMA Fab",PSMA Fab [3],1.22
same,"Phage binding ELISA signal, Anti-PSMA Fab in presence of PSMA",PSMA Fab [4],0.0737
B8,phage binding ELISA signal,PSMA Fab [1],0.0618
same,phage binding ELISA signal,PSMA Fab [2],1.12
EHARCTPAWMCAGF [Phage-3859],"Phage binding ELISA signal, Anti-PSMA Fab",Anti-PSMA Fab,1.17
B9,"Phage binding ELISA signal, Anti-PSMA Fab",006 PSMA Fab [5],1.1
same,"Phage binding ELISA signal, Anti-PSMA Fab in the presence of PSMA antigen",006 PSMA Fab [6],0.062
YNQLCIPNWMCTGF [Phage-3846],"Phage binding ELISA signal, Anti-PSMA Fab",PSMA Fab [3],1.21
same,"Phage binding ELISA signal, Anti-PSMA Fab in presence of PSMA",PSMA Fab [4],0.0729
MDVWCVPQWMCDGF (tested as crude phage supernatant) [Phage-3882],phage binding ELISA signal,PSMA Fab [1],0.0645
same,phage binding ELISA signal,PSMA Fab [2],1.12
